Reference: patent US20030228303A1

Columns and labels:
[1] = molecular target: denatured SHaPrP 27-30 (Syrian hamster) (UniProt P04273); assay: ELISA on denatured PrP 27-30 (FIG. 10)
[2] = molecular target: non-denatured SHaPrP 27-30 (Syrian hamster) (UniProt P04273); assay: ELISA on non-denatured PrP 27-30 (FIG. 9)
[3] = molecular target: non-denatured SHaPrP 27-30 (Syrian hamster) (UniProt P04273); assay: estimated from immunoprecipitation (FIG. 12)

## 3F4 Fab
[1]
  Ka: 1e+08 M⁻¹
[2]
  EC50: 2 µg/mL
[3]
  Ka: < 1e+07 M⁻¹
